This assay addresses T1, PPE41 (M. tuberculosis), chain of the crystallized complex (M. tuberculosis, UniProt Q79FE1 1-194).
T1 sequence: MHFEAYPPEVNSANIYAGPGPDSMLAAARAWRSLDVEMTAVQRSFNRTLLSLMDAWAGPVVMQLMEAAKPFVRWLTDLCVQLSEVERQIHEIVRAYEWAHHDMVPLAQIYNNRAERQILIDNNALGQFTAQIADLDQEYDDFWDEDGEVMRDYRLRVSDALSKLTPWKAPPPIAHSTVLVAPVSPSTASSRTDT
As to the kind of experiment: crystal structure.

B1: PE25 (M. tuberculosis), chain of the crystallized complex (natural protein)
chain: MSFVITNPEALTVAATEVRRIRDRAIQSDAQVAPMTTAVRPPAADLVSEKAATFLVEYARKYRQTIAAAAVVLEEFAHALTTGADKYATAEADNIKTFS
For the molecule B1, the binding result was “binds”.

The values are drawn from PMC4192059 (Molecular microbiology, 2014).
